This is an account of results in patent publication US20230279105A1 (SINGLE CELL TECHNOLOGY, published 2023).

This test deals with T1, Human TIM-3 Human Fc tagged protein (human, fluorescently labeled with HiLyte Fluor 555 (sites not given)).
T1 construct: Bought construct; also called TIM-3 protein tagged with human Fc; ACROBiosystems catalog no: TM3-H5258
The experiment in a line: capture slide probed with labeled TIM-3-Fc.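 Further: IgG from single CD138-enriched plasma cells, isolated from lymphocytes, immobilized on a derivatized glass slide.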

B1: SCT-Fa026 (antibody, V domains shown)
VH: EVQLQQSGAELVKPGASVKLSCTASGFNIKDFYMHWVHQRTEKGLEWIGRIDPEDGKTKYAPKFQGKATITADTSSNTAYLQLSSLTSEDTAVYYCARSNPYFFDYWGQGTTLTVSS
VL: DIQMNQSPSSLSASLGDTITITCHASQTINVWLSWYQQKPGNIPKLLIYKASNLHTGVPSRFSGSGSGTGFTLNISSLQPEDIATYYCHQGQSYPYTFGGGTKLEIK
notes: murine IgG
Take B1: the binding result is listed as “binds”.

B2: SCT-Fa028 (antibody, V domains shown)
VH: EVQLQQSGAELVKPGASVKLSCTASGFNIKDYYMHWVKQRTDHGLEWIGRIDPDNGETKYAPKFQGKATITADTSSNTAYLQLGSLTSEDTAVYYCARSSPYYFDYWGQGTTLTVSS
VL: DIQMNQSPSSLSASLGDTITITCHASQNINVWLSWYQQKPGNIPKLLIYKASNLHTGVPSRFSGSGSVTGFTLTISSLQPEDIATYYCQQGQNFPYTFGGGTKLEIK
notes: murine IgG
In the case of B2, the binding result is on record as “binds”.

B3: SCT-Fa027 (antibody, V domains shown)
VH: EVQLQQSGAELVKPGASVKLSCTASGFNIKDYYIHWVKQRTDQGLEWIGRIDPDNGETKYAPKFQGKATITADTSSNTAYLQLGSLTSEDTAVYYCARSSPYYFDYWGQGTTLTVSS
VL: DIQMNQSPSSLSASLGDTITITCHASQNINVWLSWYQQKPGNIPKLLIYKASNLHTGVPSRFSGSGSVTGFTLTISSLQPEDIATYYCQQGQNFPYTFGGGTKLEII
notes: murine IgG
B3: the binding result is given as “binds”.

B4: SCT-Fa031 (antibody, V domains shown)
VH: EVQLQQSGAELVKPGASVKLSCTASGFNIKDYYMHWVKQRTEQGLEWIGRIDPEDGETKYVPKFQGKATITADTSSNTAFLHLTSLTSEDTAVYYCARSNPYYFDYWGQGTTLTVSS
VL: DIQMNQSPSSLSASLGDTVTITCHASQTINVWLSWYQQKPGNIPKLLIYKASNLHTGVPSRFSGSGSGTGFTLTISSLQPEDIATYYCQQGQNYPYTFGGGTKLEIK
notes: murine IgG
Turning to B4, the binding result is “binds”.

B5: SCT-Fa033 (antibody, V domains shown)
VH: EVQLQQSGAELVKPGASVKLSCTASGFNIKDYYMHWVRQRTEQGLEWIGRIDPEDGETKYAPKFQGKATITAATSSNTPYLQLSGLTSEDTAVYYCGRSNPYYFDYWGQGTTLTVSS
VL: DIQMNQSPSSLSASLGDRITINCHASQNINVWLSWYQQKPGNIPKLLIYKASNLHTGVPSRFSGSGSVTVFTLTISSLQPEDIATYYCQQGQNYPYTFGGGTKLEIK
notes: murine IgG
Take B5: the binding result is “binds”.

B6: SCT-Fa030 (antibody, V domains shown)
VH: EVQLQQSGAELVKPGASVKLSCTASGFNIKDYYMHWVKQRTEQGLEWIGRIDPEDGETKYAPKFQGKATITADTSSNTASLQLSSLTSEDTAVYYCARSNPYFFDYWGQGTPLTVSS
VL: DIQMNQSPSSLSASLGDTITITCHASQTINVWLSWYQQKPGNIPKLLIYKASKMHTGVPSRFSGSGSGTGFTLNISSLQPEDIATYYCHQGQSYPYTFGGGTKLEIK
notes: murine IgG
Turning to B6, the binding result was “binds”.

B7: SCT-Fa038 (antibody, V domains shown)
VH: EVQLQQSGAELVKPGASVKLSCTVSGFNIKDYYMHWVKQRTEQGLEWIGRIDPENDKIKYAPKFQGKATITADTSSNTVYLQLSSLTSEDTAVYYCARSNPYFFDYWGQGTTLTVSS
VL: DIQMNQSPSSLSASLGDTITITCHASQTINVWLSWYQQKPGNIPKLLIYKASNLHTGVPSRFSGSGSGTGFTLNISSLQPEDIATYYCHQGQSYPYTFGGGTKLEIK
notes: murine IgG
Turning to B7, the binding result is “binds”.

B8: SCT-Fa003 (antibody, V domains shown)
VH: EGKLEESGGGLVQPGGSMKLSCAASGFTFSDAWMDWVRQSPKKGLEWVAEIRNKANKHSKHYAESVKGRFTISRDDSKSSVYLQMNSLRAEDTGIYYCSYDYIFAYWGQGTLVTVSA
VL: DVVMTQTPLSLPVSLGDQASISCRSSQSLVHSNGNTYLHWYLQKPGQSPKLLIYKVSNRFSGVPDRFSGSGSGTDFTLKISRVEAEDLGVYFCSQSTHVPWTFGGGTKLEIK
notes: murine IgG
In the case of B8, the binding result is recorded as “binds”.
